# Non-standard residues stand in square brackets, D forms with d. No end group written: not given here. Hyp = O=C(O)[C@@H]1C[C@@H](O)CN1; NMeI = CC[C@H](C)[C@H](NC)C(=O)O; hArg = N=C(N)NCCCC[C@H](N)C(=O)O; Cit = NC(=O)NCCC[C@H](N)C(=O)O; Nle = CCCC[C@H](N)C(=O)O; APPA = not defined here; Aib = CC(C)(N)C(=O)O
# How the values were obtained:
# [1] = molecular target: Purified recombinant human PCSK9 (His-tagged, BPS Biosciences) (human) (UniProt Q8NBP7); assay: SPR (Biacore T200), PCSK9 amine-coupled on chip, peptide at 50 µM
# [2] = molecular target: Purified recombinant human PCSK9 (His-tagged, BPS Biosciences) (human) (UniProt Q8NBP7); assay: SPR (Biacore T200), PCSK9 amine-coupled on chip, peptide at 100 µM
# Sequence of Purified recombinant human PCSK9 (His-tagged, BPS Biosciences) (human) (Q8NBP7 31-692 limits assumed): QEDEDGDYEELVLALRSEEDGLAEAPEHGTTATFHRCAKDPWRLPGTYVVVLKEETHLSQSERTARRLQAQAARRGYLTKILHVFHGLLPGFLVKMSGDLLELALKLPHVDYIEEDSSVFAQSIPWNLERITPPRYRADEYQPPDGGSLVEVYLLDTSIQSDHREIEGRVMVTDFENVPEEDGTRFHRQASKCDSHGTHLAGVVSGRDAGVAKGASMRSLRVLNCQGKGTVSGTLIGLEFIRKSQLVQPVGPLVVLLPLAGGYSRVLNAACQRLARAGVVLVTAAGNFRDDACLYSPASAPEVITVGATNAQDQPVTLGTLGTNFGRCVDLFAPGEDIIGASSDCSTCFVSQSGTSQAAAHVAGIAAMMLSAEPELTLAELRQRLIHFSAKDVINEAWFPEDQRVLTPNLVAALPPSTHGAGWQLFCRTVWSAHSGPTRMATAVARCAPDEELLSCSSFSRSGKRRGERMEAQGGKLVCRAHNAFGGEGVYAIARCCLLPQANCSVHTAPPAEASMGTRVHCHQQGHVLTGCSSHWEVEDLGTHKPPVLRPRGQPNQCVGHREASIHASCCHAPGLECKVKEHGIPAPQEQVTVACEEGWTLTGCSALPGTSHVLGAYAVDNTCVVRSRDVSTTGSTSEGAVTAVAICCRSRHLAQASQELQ
Binder,Binding - Response Unit (RU) [1] [RU],Binding - Response Unit (RU) [2] [RU]
SIPWNLER[Nle]TPC [Short chain peptide Seq. ID. No. 4 (SIPWNLER-Nle-TPC)],13.1,30
SIPWN[Aib]ERITPC [Short chain peptide Seq. ID. No. 10 (SIPWN-Aib-ERITPC)],3,7.5
SI[Hyp]WNLERITPC [Short chain peptide Seq. ID. No. 8 (SI-Hyp-…)],5.7,13.2
SIPWNLER[Aib]TPC [Short chain peptide Seq. ID. No. 5 (SIPWNLER-Aib-TPC)],2.3,7.1
SIPWNLE[hArg]ITPC [Short chain peptide Seq. ID. No. 6 (SIPWNLE-Har-ITPC)],6.55,17.5
SIPWN[Nle]ERITPC [Short chain peptide Seq. ID. No. 7 (SIPWN-Nle-ERITPC)],6.65,16

# Next, values leading:
Binding - Response Unit (RU) [1] [RU],Binding - Response Unit (RU) [2] [RU],Binder
9.75,37.4,SIPWNLERI[Aib]PC [Short chain peptide Seq. ID. No. 13 (…-Aib-PC)]
35.1,85.9,SIP[Bip(OMe)]NLERITPC [Short chain peptide Seq. ID. No. 19 (SIP-Bip(OMe)-NLERITPC)]
11.4,29.9,S[NMeI]IPWNLERITPC [Short chain peptide Seq. ID. No. 15 (S-(N-Me-Ile)-…)]
3.1,6.7,SIPWNLE[Cit]ITPC [Short chain peptide Seq. ID. No. 12 (SIPWNLE-Cit-ITPC)]
10.2,17.9,SIP[APPA]NLERITPC (reading uncertain) [Short chain peptide Seq. ID. No. 18 (SIP-APPA-NLERITPC)]
7.1,15,[Aib]IPWNLERITPC [Short chain peptide Seq. ID. No. 14 (Aib-…)]
